Measurements taken from IntAct's records for PubMed 22187462.

B1: Catenin beta-1 (Homo sapiens), P35222 (parent)
chain: MATQADLMELDMAMEPDRKAAVSHWQQQSYLDSGIHSGATTTAPSLSGKGNPEEEDVDTSQVLYEWEQGFSQSFTQEQVADIDGQYAMTRAQRVRAAMFPETLDEGMQIPSTQFDAAHPTNVQRLAEPSQMLKHAVVNLINYQDDAELATRAIPELTKLLNDEDQVVVNKAAVMVHQLSKKEASRHAIMRSPQMVSAIVRTMQNTNDVETARCTAGTLHNLSHHREGLLAIFKSGGIPALVKMLGSPVDSVLFYAITTLHNLLLHQEGAKMAVRLAGGLQKMVALLNKTNVKFLAITTDCLQILAYGNQESKLIILASGGPQALVNIMRTYTYEKLLWTTSRVLKVLSVCSSNKPAIVEAGGMQALGLHLTDPSQRLVQNCLWTLRNLSDAATKQEGMEGLLGTLVQLLGSDDINVVTCAAGILSNLTCNNYKNKMMVCQVGGIEALVRTVLRAGDREDITEPAICALRHLTSRHQEAEMAQNAVRLHYGLPVVVKLLHPPSHWPLIKATVGLIRNLALCPANHAPLREQGAIPRLVQLLVRAHQDTQRRTSMGGTQQQFVEGVRMEEIVEGCTGALHILARDVHNRIVIRGLNTIPLFVQLLYSPIENIQRVAAGVLCELAQDKEAAEAIEAEGATAPLTELLHSRNEGVATYAAAVLFRMSEDKPQDYKKRLSVELTSSLFRTEPMAWNETADLGLDIGAQGEPLGYRQDDPSYRSFHSGGYGQDALGMDPMMEHEMGGHHPGADYPVDGLPDLGHAQDLMDGLPPGDSNQLAWFDTDL

Variants of: B1
Details: with andr_human AR

effect of a mutation on the interaction | Variant
disrupting interaction strength | Y306A
disrupting interaction strength | W383A
disrupting interaction strength | Y306A;K345A;W383A
disrupting interaction strength | K345A

Variants of: B1
Details: with NR5A2, O00482-1
Chain of NR5A2, O00482-1 (O00482 whole entry): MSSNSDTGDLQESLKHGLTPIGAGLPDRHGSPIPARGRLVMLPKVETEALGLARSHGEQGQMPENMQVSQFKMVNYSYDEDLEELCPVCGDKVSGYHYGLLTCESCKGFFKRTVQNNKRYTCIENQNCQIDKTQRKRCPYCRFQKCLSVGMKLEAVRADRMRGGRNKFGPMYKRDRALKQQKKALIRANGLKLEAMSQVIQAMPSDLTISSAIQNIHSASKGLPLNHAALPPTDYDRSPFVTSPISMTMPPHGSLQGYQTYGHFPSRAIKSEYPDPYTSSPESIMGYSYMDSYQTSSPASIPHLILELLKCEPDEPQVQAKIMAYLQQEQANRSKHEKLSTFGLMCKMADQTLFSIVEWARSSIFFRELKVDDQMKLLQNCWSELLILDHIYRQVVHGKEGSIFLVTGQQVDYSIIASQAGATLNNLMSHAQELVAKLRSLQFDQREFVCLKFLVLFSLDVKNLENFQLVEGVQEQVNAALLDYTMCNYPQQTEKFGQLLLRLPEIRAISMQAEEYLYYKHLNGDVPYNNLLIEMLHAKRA

effect of a mutation on the interaction | Variant
disrupting interaction strength | Y306A;K345A;W383A
